No end group written: not given here.
Biological target: T1, Ric-8AΔC492 (rat Ric-8A residues 1–492) (rat, UniProt Q80ZG1 1-492)
T1 construct: Ric-8A, rat, residues 1-492; The His tag is used to adsorb it to IMAC resin in the NMR experiment; also called ΔC492Ric-8A; source: E. coli BL21 (DE3)-RIPL, purified (nickel NTA-agarose, UNO-Q); not shown: His6, N-terminal, kept
T1 sequence (looked up): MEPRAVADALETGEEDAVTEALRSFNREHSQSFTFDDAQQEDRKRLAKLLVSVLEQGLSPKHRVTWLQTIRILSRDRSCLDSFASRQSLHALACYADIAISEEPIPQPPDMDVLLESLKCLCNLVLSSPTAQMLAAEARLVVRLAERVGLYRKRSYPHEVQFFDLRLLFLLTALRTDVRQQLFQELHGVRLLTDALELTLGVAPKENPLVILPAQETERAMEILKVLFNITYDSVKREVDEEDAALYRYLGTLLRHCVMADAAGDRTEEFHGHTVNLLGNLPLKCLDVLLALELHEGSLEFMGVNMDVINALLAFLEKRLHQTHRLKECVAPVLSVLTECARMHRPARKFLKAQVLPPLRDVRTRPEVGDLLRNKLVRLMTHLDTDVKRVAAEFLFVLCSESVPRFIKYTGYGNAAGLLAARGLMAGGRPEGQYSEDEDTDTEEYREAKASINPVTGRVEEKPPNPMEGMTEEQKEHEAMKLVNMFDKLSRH
Experiment: ITC; 250 µM peptide injected into 25 µM Ric-8A in the cell, 25°C, single binding site model
Details: both partners purified

Kd: 12 µM
dH: -5.3 kcal/mol
stoichiometry N: 0.9
B1: Gαi1C18, amidated peptide of the 18 C-terminal residues of rat Gαi1 (peptide)
peptide: DAVTDVIIKNNLKDCGLF-NH2
notes: Gαi1, rat, the C-terminal 18 residues; source: synthetic peptide (FMOC chemistry, HPLC purified)
